Reference: the Human Domainome abundance scans (Beltran et al. 2025)

B1: Pyruvate dehydrogenase protein X component, mitochondrial, residues 181 to 227; numbered along this chain, O00330 (parent)
chain: RFRLSPAARNILEKHSLDASQGTATGPRGIFTKEDALKLVQLKQTGK
B2: Chromodomain-helicase-DNA-binding protein 5, residues 411 to 463; numbered along this chain, Q8TDI0 (parent)
chain: EEDDHMEFCRVCKDGGELLCCDACPSSYHLHCLNPPLPEIPNGEWLCPRCTCP

Variants of: B1
Experiment: abundance fitness (aPCA) (normalised: wild type 0, dead -1); higher = more abundant; growth selection in yeast, the domain comes from the species named
Details: Homo sapiens

Abundance fitness, by site and new letter:
Q44: T -0.451, V -0.133, M -0.389, F -0.328, S -0.068, R -0.14, W -0.641, N -0.337, L -0.131, A -0.008, P -0.516, D -0.262, H -0.152, E 0.038, K 0.114, I 0.039, Y -0.028
K47: E 0.284, M 0.312, Q 0.539, C -0.003, T -0.774, D -0.532, N -0.751, Y 0.095, R -0.293, H -0.156
T45: W -0.276, Q -0.209, G 0.166, P -0.333, I -0.428, V -0.156, C -0.217, H -0.189, D 0.07, N 0.096, R -0.023, M -0.211, F -0.147, S 0.167, L -0.146, K -0.379
G46: M -0.042, P -0.469, H 0.38, Y 0.219, E 0.122, I -0.689, R -0.105, S -0.05, T -0.037, C 0.022, V -0.207, K -0.375, L -0.268, W -0.553, F -0.464, D -0.343, Q 0.249, A -0.323
K43: H 0.299, Y -0.193, S 0.013, R -0.245, P -0.477, W -0.608, Q -0.057, G -0.141, L -0.575, V -0.28

Variants of: B2
Experiment: as above
Details: Homo sapiens

Abundance fitness of substitutions, site by site:
D14: M -0.051, W -0.232
E1: K 0.044
L46: C 0.088, N 0.294, T -0.102, I 0.116, Q -0.063
P38: F -0.083, A 0.358
P48: H 0.014, N -0.106, E 0.177, M -0.389
N42: K -0.144, I -0.346, P 0.16, W -0.142, R -0.052, F -0.266, D -0.028, A 0.011
P41: R -0.004, T 0.002
C50: T -0.74, G -0.613, M -0.77, I -0.751, N -0.591, Y -0.568
R10: L -0.06, Y 0.037, K -0.218, I -0.089, P -0.413
S26: T 0.002, K -0.062, E 0.011, L 0.001, N 0.167, A 0.044
G16: A -0.629, R -0.518, P -0.832, C -0.183, I -0.145, N -0.369
G43: M -0.333, E 0.003, S -0.008, A 0.047
A23: Q 0.305, L 0.068, M -0.324
Y28: E -0.853, W -0.188, Q -0.454, M -0.262
N34: C -0.074, E -0.036, G -0.169, T -0.189, Y -0.139, I -0.132
E7: Q -0.332, A -0.031, P -0.368, Y -0.527, C 0.095, W -0.247, M -0.378
C47: F -0.318, R -0.737, W -0.914, K -0.848, N -0.285, M -0.906, Q -0.192
I40: A -0.206, V -0.027, E -0.129, M -0.112, N 0.063, G -0.09
R49: F 0.011, I -0.305, W -0.073
S27: M -0.052, R -0.056, E -0.212, N 0.02, F 0.152
K13: H -0.265, R -0.068, N 0.075, D 0.01
